As a reminder, the stoichiometry N is a count of units in the complex or per binding partner. In general, IC50 refers to the midpoint of a concentration-inhibition curve. Higher therefore signals lower potency.

Experimental findings from PMC9729238 (Communications Biology, 2022) are described below.

For assay [1], the target named is Chimera of the α7-nAChR extracellular domain with acetylcholine-binding protein (α7-ECD) (human α7-nAChR / Lymnaea stagnalis AChBP chimera). As to the kind of experiment: cryo-EM structure.
Assay [2] has as its target T1, Nicotinic acetylcholine receptor of α7 type (α7-nAChR) expressed in HEK293 cells (UniProt P36544 23-502).
T1 construct: also called full-length α7 receptor; α7 receptor
As to the kind of experiment: flow cytometry on cells. To be noted: one partner purified. On the technique in general: In flow cytometry, cells or beads pass a laser one at a time.

As for “Chimera of the α7-nAChR extracellular domain with acetylcholine-binding protein (α7-ECD) (domain or fragment)”, the stoichiometry N in assay [1] was 5.

B1: Weak toxin from Naja kaouthia venom (WTX), recombinant analog (natural protein)
chain: MLTCLNCPEMFCGKFQICRNGEKICFKKLHQRRPLSWRYIRGCADTCPVGKPYEMIECCSTDKCNR
modifications: disulfide (positions not given here); also: five disulfide bonds, pairing not given here
In assay [2], B1 yielded an IC50 of 26 ± 4 µM.
